{"source": "paper PMC5540999", "about": "“In vivo monitoring of the recruitment and activation of AP-1 by Arf1” (Scientific Reports, 2017)", "molecular_target": "T1, β1-RlucII (human, UniProt Q10567 1-949)", "T1 construct": "β1 subunit of AP-1, human; amplified by PCR minus the stop codon; also called β-RlucII; source: HEK293T, transfected, in live cells (BRET), cell fractions and lysate (co-IP); not shown: RlucII, C-terminal, kept", "T1 sequence (looked up)": "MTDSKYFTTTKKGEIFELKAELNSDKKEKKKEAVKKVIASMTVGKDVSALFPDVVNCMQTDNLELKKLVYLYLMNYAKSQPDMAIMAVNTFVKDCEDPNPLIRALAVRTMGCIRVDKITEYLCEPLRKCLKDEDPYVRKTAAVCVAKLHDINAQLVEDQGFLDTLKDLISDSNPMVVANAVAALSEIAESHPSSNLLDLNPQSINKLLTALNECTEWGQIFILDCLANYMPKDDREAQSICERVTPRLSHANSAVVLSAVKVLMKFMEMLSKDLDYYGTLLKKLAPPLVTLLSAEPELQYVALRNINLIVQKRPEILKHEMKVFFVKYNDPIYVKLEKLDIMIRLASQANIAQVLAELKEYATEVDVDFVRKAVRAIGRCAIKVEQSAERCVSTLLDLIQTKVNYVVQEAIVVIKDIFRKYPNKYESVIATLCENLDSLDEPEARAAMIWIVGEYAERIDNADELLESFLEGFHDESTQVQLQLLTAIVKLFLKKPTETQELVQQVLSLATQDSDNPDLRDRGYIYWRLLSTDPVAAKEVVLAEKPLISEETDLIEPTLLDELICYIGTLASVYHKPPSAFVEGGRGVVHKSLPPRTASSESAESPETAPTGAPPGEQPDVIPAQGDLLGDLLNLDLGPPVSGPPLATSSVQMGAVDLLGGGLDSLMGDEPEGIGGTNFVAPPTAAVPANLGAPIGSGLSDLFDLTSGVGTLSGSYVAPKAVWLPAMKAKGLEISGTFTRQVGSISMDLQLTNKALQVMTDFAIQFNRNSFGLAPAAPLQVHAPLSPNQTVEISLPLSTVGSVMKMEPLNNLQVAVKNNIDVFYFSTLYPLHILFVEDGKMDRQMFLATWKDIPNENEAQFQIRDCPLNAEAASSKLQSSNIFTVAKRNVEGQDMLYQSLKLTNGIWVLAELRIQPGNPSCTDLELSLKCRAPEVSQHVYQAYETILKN", "assay": "FRET or BRET; BRET^2 in live HEK293T cells (γ/µ1 also in Arf1-KO cells; some panels with Brefeldin A 10 µM 15 min or co-expressed Arf1-HA forms): low constant amount of the RlucII donor, increasing amounts of the GFP10 acceptor; coelenterazine 400a 5 µM; BRET50 and BRETmax from a one-site saturation fit", "conditions": "partners not purified"}
{"binder": "β1-GFP10 (AP-1 β1 subunit, wild type) (natural protein, human, UniProt Q10567 1-949, looked up, β1 subunit of the adaptor protein complex 1 (AP-1), human; amplified by PCR minus the stop codon; also called β-GFP10; full-length β1-GFP10; source: HEK293T, transfected, in live cells (BRET), cell fractions and lysate (co-IP); not shown: GFP10, C-terminal, kept) MTDSKYFTTTKKGEIFELKAELNSDKKEKKKEAVKKVIASMTVGKDVSALFPDVVNCMQTDNLELKKLVYLYLMNYAKSQPDMAIMAVNTFVKDCEDPNPLIRALAVRTMGCIRVDKITEYLCEPLRKCLKDEDPYVRKTAAVCVAKLHDINAQLVEDQGFLDTLKDLISDSNPMVVANAVAALSEIAESHPSSNLLDLNPQSINKLLTALNECTEWGQIFILDCLANYMPKDDREAQSICERVTPRLSHANSAVVLSAVKVLMKFMEMLSKDLDYYGTLLKKLAPPLVTLLSAEPELQYVALRNINLIVQKRPEILKHEMKVFFVKYNDPIYVKLEKLDIMIRLASQANIAQVLAELKEYATEVDVDFVRKAVRAIGRCAIKVEQSAERCVSTLLDLIQTKVNYVVQEAIVVIKDIFRKYPNKYESVIATLCENLDSLDEPEARAAMIWIVGEYAERIDNADELLESFLEGFHDESTQVQLQLLTAIVKLFLKKPTETQELVQQVLSLATQDSDNPDLRDRGYIYWRLLSTDPVAAKEVVLAEKPLISEETDLIEPTLLDELICYIGTLASVYHKPPSAFVEGGRGVVHKSLPPRTASSESAESPETAPTGAPPGEQPDVIPAQGDLLGDLLNLDLGPPVSGPPLATSSVQMGAVDLLGGGLDSLMGDEPEGIGGTNFVAPPTAAVPANLGAPIGSGLSDLFDLTSGVGTLSGSYVAPKAVWLPAMKAKGLEISGTFTRQVGSISMDLQLTNKALQVMTDFAIQFNRNSFGLAPAAPLQVHAPLSPNQTVEISLPLSTVGSVMKMEPLNNLQVAVKNNIDVFYFSTLYPLHILFVEDGKMDRQMFLATWKDIPNENEAQFQIRDCPLNAEAASSKLQSSNIFTVAKRNVEGQDMLYQSLKLTNGIWVLAELRIQPGNPSCTDLELSLKCRAPEVSQHVYQAYETILKN", "values": [{"measurement": "fold decrease of BRET50 in the presence of Arf1^Q71L-HA", "result": "~4", "unit": "fold"}]}
